Source: article PMC4018121

Target: rhSTIP1 (stress-induced phosphoprotein 1) (Homo sapiens, UniProt P31948 1-543)
Test: aptamer blot on nitrocellulose, chemiluminescence

B1: TOV6 (structured_DNA)
DNA: ATCCAGAGTGACGCAGCACGGCACTCACTCTTTGTTAAGTGGTCTGCTTCTTAACCTTCATCGACACGGTGGCTTA
B1: binds.
